Laboratory results: IntAct's records for PubMed 14685257

B1: Polyadenylate-binding protein-interacting protein 2 (Homo sapiens), Q9BPZ3 (parent)
chain: MKDPSRSSTSPSIINEDVIINGHSHEDDNPFAEYMWMENEEEFNRQIEEELWEEEFIERCFQEMLEEEEEHEWFIPARDLPQTMDQIQDQFNDLVISDGSSLEDLVVKSNLNPNAKEFVPGVKYGNI

Variants of: B1
Conditions: with pabp1_human PABPC1, P11940
Sequence of pabp1_human PABPC1, P11940 (P11940 whole entry): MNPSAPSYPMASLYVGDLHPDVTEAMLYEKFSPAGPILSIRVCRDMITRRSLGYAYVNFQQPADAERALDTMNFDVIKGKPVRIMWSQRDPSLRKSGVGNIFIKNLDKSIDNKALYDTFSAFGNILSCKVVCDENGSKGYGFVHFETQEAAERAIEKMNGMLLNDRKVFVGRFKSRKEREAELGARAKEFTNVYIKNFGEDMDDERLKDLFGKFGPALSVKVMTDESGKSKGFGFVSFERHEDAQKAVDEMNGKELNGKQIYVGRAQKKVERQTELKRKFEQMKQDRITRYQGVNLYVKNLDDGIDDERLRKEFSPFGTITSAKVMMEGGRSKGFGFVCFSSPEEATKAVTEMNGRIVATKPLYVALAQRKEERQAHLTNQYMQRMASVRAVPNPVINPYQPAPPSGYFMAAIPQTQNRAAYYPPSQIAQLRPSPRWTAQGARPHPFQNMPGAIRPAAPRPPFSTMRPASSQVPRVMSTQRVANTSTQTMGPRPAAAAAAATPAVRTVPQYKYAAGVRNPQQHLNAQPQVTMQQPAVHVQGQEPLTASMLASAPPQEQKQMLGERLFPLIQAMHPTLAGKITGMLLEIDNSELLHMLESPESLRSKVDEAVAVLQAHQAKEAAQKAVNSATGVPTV
F118A was tested, and the “effect of a mutation on the interaction” value was “disrupting interaction”.
For L111A, the “effect of a mutation on the interaction” value was “decreasing interaction”.
In the case of E117A, the “effect of a mutation on the interaction” value is reported as “decreasing interaction”.
With A115L the “effect of a mutation on the interaction” value was “decreasing interaction”.
In the case of K116A, the “effect of a mutation on the interaction” value is reported as “decreasing interaction”.
In the case of P120A, the “effect of a mutation on the interaction” value is reported as “decreasing interaction”.
P113A was tested, and the “effect of a mutation on the interaction” value was “decreasing interaction”.
